# US12099068B2, “Biomarkers for graft-versus-host disease” (Incyte Corporation, priority 2018, dated 2024)
# Tested on: plasma proteins
# Test: Plasma proteins modulated between baseline and day 28 in responders (CR, VGPR, PR; n = 19), Example 6 (Table 13)
# Type: in vivo, human
# Details: plasma protein (OLINK NPX); responders (CR, VGPR, PR; n = 19); itacitinib 200 mg or 300 mg QD with corticosteroids; day 28 vs baseline
# Outline: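 Plasma at baseline/screening and day 28 profiled for >1000 proteins by OLINK proximity extension assay, reported as NPX (log2). Steroid-naive and steroid-refractory patients pooled. Paired and unpaired t tests, ANOVA and Pearson correlation applied; significance at P<0.05.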
Molecule,"Fold Change, Decreased Expression from Baseline to Day 28","Fold Change, Increased Expression from Baseline to Day 28"
"TXLNA (protein, UniProt P40222 1-546, looked up) Alpha-taxilin: MKNQDKKNGAAKQSNPKSSPGQPEAGPEGAQERPSQAAPAVEAEGPGSSQAPRKPEGAQARTAQSGALRDVSEELSRQLEDILSTYCVDNNQGGPGEDGAQGEPAEPEDAEKSRTYVARNGEPEPTPVVNGEKEPSKGDPNTEEIRQSDEVGDRDHRRPQEKKKAKGLGKEITLLMQTLNTLSTPEEKLAALCKKYAELLEEHRNSQKQMKLLQKKQSQLVQEKDHLRGEHSKAVLARSKLESLCRELQRHNRSLKEEGVQRAREEEEKRKEVTSHFQVTLNDIQLQMEQHNERNSKLRQENMELAERLKKLIEQYELREEHIDKVFKHKDLQQQLVDAKLQQAQEMLKEAEERHQREKDFLLKEAVESQRMCELMKQQETHLKQQLALYTEKFEEFQNTLSKSSEVFTTFKQEMEKMTKKIKKLEKETTMYRSRWESSNKALLEMAEEKTVRDKELEGLQVKIQRLEKLCRALQTERNDLNKRVQDLSAGGQGSLTDSGPERRPEGPGAQAPSSPRVTEAPCYPGAPSTEASGQTGPQEPTSARA",−1.5277,–
"BACH1 (protein, UniProt O14867 1-736, looked up) Transcription regulator …: MSLSENSVFAYESSVHSTNVLLSLNDQRKKDVLCDVTIFVEGQRFRAHRSVLAACSSYFHSRIVGQADGELNITLPEEVTVKGFEPLIQFAYTAKLILSKENVDEVCKCVEFLSVHNIEESCFQFLKFKFLDSTADQQECPRKKCFSSHCQKTDLKLSLLDQRDLETDEVEEFLENKNVQTPQCKLRRYQGNAKASPPLQDSASQTYESMCLEKDAALALPSLCPKYRKFQKAFGTDRVRTGESSVKDIHASVQPNERSENECLGGVPECRDLQVMLKCDESKLAMEPEETKKDPASQCPTEKSEVTPFPHNSSIDPHGLYSLSLLHTYDQYGDLNFAGMQNTTVLTEKPLSGTDVQEKTFGESQDLPLKSDLGTREDSSVASSDRSSVEREVAEHLAKGFWSDICSTDTPCQMQLSPAVAKDGSEQISQKRSECPWLGIRISESPEPGQRTFTTLSSVNCPFISTLSTEGCSSNLEIGNDDYVSEPQQEPCPYACVISLGDDSETDTEGDSESCSAREQECEVKLPFNAQRIISLSRNDFQSLLKMHKLTPEQLDCIHDIRRRSKNRIAAQRCRKRKLDCIQNLESEIEKLQSEKESLLKERDHILSTLGETKQNLTGLCQKVCKEAALSQEQIQILAKYSAADCPLSFLISEKDKSTPDGELALPSIFSLSDRPPAVLPPCARGNSEPGYARGQESQQMSTATSEQAGPAEQCRQSGGISDFCQQMTDKCTTDE",−1.4794,–
"PAM (protein, UniProt P19021 31-973, looked up) Peptidyl-glycine …: FKETTRPFSNECLGTTRPVVPIDSSDFALDIRMPGVTPKQSDTYFCMSMRIPVDEEAFVIDFKPRASMDTVHHMLLFGCNMPSSTGSYWFCDEGTCTDKANILYAWARNAPPTRLPKGVGFRVGGETGSKYFVLQVHYGDISAFRDNNKDCSGVSLHLTRLPQPLIAGMYLMMSVDTVIPAGEKVVNSDISCHYKNYPMHVFAYRVHTHHLGKVVSGYRVRNGQWTLIGRQSPQLPQAFYPVGHPVDVSFGDLLAARCVFTGEGRTEATHIGGTSSDEMCNLYIMYYMEAKHAVSFMTCTQNVAPDMFRTIPPEANIPIPVKSDMVMMHEHHKETEYKDKIPLLQQPKREEEEVLDQGDFYSLLSKLLGEREDVVHVHKYNPTEKAESESDLVAEIANVVQKKDLGRSDAREGAEHERGNAILVRDRIHKFHRLVSTLRPPESRVFSLQQPPPGEGTWEPEHTGDFHMEEALDWPGVYLLPGQVSGVALDPKNNLVIFHRGDHVWDGNSFDSKFVYQQIGLGPIEEDTILVIDPNNAAVLQSSGKNLFYLPHGLSIDKDGNYWVTDVALHQVFKLDPNNKEGPVLILGRSMQPGSDQNHFCQPTDVAVDPGTGAIYVSDGYCNSRIVQFSPSGKFITQWGEESSGSSPLPGQFTVPHSLALVPLLGQLCVADRENGRIQCFKTDTKEFVREIKHSSFGRNVFAISYIPGLLFAVNGKPHFGDQEPVQGFVMNFSNGEIIDIFKPVRKHFDMPHDIVASEDGTVYIGDAHTNTVWKFTLTEKLEHRSVKKAGIEVQEIKEAEAVVETKMENKPTSSELQKMQEKQKLIKEPGSGVPVVLITTLLVIPVVVLLAIAIFIRWKKSRAFGDSEHKLETSSGRVLGRFRGKGSGGLNLGNFFASRKGYSRKGFDRLSTEGSDQEKEDDGSESEEEYSAPLPALAPSSS",–,1.1653
"MATN3 (protein, UniProt O15232 29-486, looked up) Matrilin-3: DPVARPGFRRLETRGPGGSPGRRPSPAAPDGAPASGTSEPGRARGAGVCKSRPLDLVFIIDSSRSVRPLEFTKVKTFVSRIIDTLDIGPADTRVAVVNYASTVKIEFQLQAYTDKQSLKQAVGRITPLSTGTMSGLAIQTAMDEAFTVEAGAREPSSNIPKVAIIVTDGRPQDQVNEVAARAQASGIELYAVGVDRADMASLKMMASEPLEEHVFYVETYGVIEKLSSRFQETFCALDPCVLGTHQCQHVCISDGEGKHHCECSQGYTLNADKKTCSALDRCALNTHGCEHICVNDRSGSYHCECYEGYTLNEDRKTCSAQDKCALGTHGCQHICVNDRTGSHHCECYEGYTLNADKKTCSVRDKCALGSHGCQHICVSDGAASYHCDCYPGYTLNEDKKTCSATEEARRLVSTEDACGCEATLAFQDKVSSYLQRLNTKLDDILEKLKINEYGQIHR",−1.3384,–
"VWC2 (protein, UniProt Q2TAL6 28-325, looked up) Brorin: SPSIPLEKLAQAPEQPGQEKREHASRDGPGRVNELGRPARDEGGSGRDWKSKSGRGLAGREPWSKLKQAWVSQGGGAKAGDLQVRPRGDTPQAEALAAAAQDAIGPELAPTPEPPEEYVYPDYRGKGCVDESGFVYAIGEKFAPGPSACPCLCTEEGPLCAQPECPRLHPRCIHVDTSQCCPQCKERKNYCEFRGKTYQTLEEFVVSPCERCRCEANGEVLCTVSACPQTECVDPVYEPDQCCPICKNGPNCFAETAVIPAGREVKTDECTICHCTYEEGTWRIERQAMCTRHECRQM",–,1.3331
"MEPE (protein, UniProt Q9NQ76 18-525, looked up) Matrix extracellular …: PTFQPQTEKTKQSCVEEQRQEEKNKDNIGFHHLGKRINQELSSKENIVQERKKDLSLSEASENKGSSKSQNYFTNRQRLNKEYSISNKENTHNGLRMSIYPKSTGNKGFEDGDDAISKLHDQEEYGAALIRNNMQHIMGPVTAIKLLGEENKENTPRNVLNIIPASMNYAKAHSKDKKKPQRDSQAQKSPVKSKSTHRIQHNIDYLKHLSKVKKIPSDFEGSGYTDLQERGDNDISPFSGDGQPFKDIPGKGEATGPDLEGKDIQTGFAGPSEAESTHLDTKKPGYNEIPEREENGGNTIGTRDETAKEADAVDVSLVEGSNDIMGSTNFKELPGREGNRVDAGSQNAHQGKVEFHYPPAPSKEKRKEGSSDAAESTNYNEIPKNGKGSTRKGVDHSNRNQATLNEKQRFPSKGKSQGLPIPSRGLDNEIKNEMDSFNGPSHENIITHGRKYHYVPHRQNNSTRNKGMPQGKGSWGRQPHSNRRFSSRRRDDSSESSDSGSSSESDGD",−1.4941,–
"PVR (protein, UniProt P15151 21-417, looked up) Poliovirus receptor: WPPPGTGDVVVQAPTQVPGFLGDSVTLPCYLQVPNMEVTHVSQLTWARHGESGSMAVFHQTQGPSYSESKRLEFVAARLGAELRNASLRMFGLRVEDEGNYTCLFVTFPQGSRSVDIWLRVLAKPQNTAEVQKVQLTGEPVPMARCVSTGGRPPAQITWHSDLGGMPNTSQVPGFLSGTVTVTSLWILVPSSQVDGKNVTCKVEHESFEKPQLLTVNLTVYYPPEVSISGYDNNWYLGQNEATLTCDARSNPEPTGYNWSTTMGPLPPFAVAQGAQLLIRPVDKPINTTLICNVTNALGARQAELTVQVKEGPPSEHSGISRNAIIFLVLGILVFLILLGIGIYFYWSKCSREVLWHCHLCPSSTEHASASANGHVSYSAVSRENSSSQDPQTEGTR",–,1.1964
"CPM (protein, UniProt P14384 18-423, looked up) Carboxypeptidase M: LDFNYHRQEGMEAFLKTVAQNYSSVTHLHSIGKSVKGRNLWVLVVGRFPKEHRIGIPEFKYVANMHGDETVGRELLLHLIDYLVTSDGKDPEITNLINSTRIHIMPSMNPDGFEAVKKPDCYYSIGRENYNQYDLNRNFPDAFEYNNVSRQPETVAVMKWLKTETFVLSANLHGGALVASYPFDNGVQATGALYSRSLTPDDDVFQYLAHTYASRNPNMKKGDECKNKMNFPNGVTNGYSWYPLQGGMQDYNYIWAQCFEITLELSCCKYPREEKLPSFWNNNKASLIEYIKQVHLGVKGQVFDQNGNPLPNVIVEVQDRKHICPYRTNKYGEYYLLLLPGSYIINVTVPGHDPHITKVIIPEKSQNFSALKKDILLPFQGQLDSIPVSNPSCPMIPLYRNLPDHS",–,1.1479
"CNTNAP2 (protein, UniProt Q9UHC6 28-1331, looked up) Contactin-associated …: APSTSQKCDEPLVSGLPHVAFSSSSSISGSYSPGYAKINKRGGAGGWSPSDSDHYQWLQVDFGNRKQISAIATQGRYSSSDWVTQYRMLYSDTGRNWKPYHQDGNIWAFPGNINSDGVVRHELQHPIIARYVRIVPLDWNGEGRIGLRIEVYGCSYWADVINFDGHVVLPYRFRNKKMKTLKDVIALNFKTSESEGVILHGEGQQGDYITLELKKAKLVLSLNLGSNQLGPIYGHTSVMTGSLLDDHHWHSVVIERQGRSINLTLDRSMQHFRTNGEFDYLDLDYEITFGGIPFSGKPSSSSRKNFKGCMESINYNGVNITDLARRKKLEPSNVGNLSFSCVEPYTVPVFFNATSYLEVPGRLNQDLFSVSFQFRTWNPNGLLVFSHFADNLGNVEIDLTESKVGVHINITQTKMSQIDISSGSGLNDGQWHEVRFLAKENFAILTIDGDEASAVRTNSPLQVKTGEKYFFGGFLNQMNNSSHSVLQPSFQGCMQLIQVDDQLVNLYEVAQRKPGSFANVSIDMCAIIDRCVPNHCEHGGKCSQTWDSFKCTCDETGYSGATCHNSIYEPSCEAYKHLGQTSNYYWIDPDGSGPLGPLKVYCNMTEDKVWTIVSHDLQMQTPVVGYNPEKYSVTQLVYSASMDQISAITDSAEYCEQYVSYFCKMSRLLNTPDGSPYTWWVGKANEKHYYWGGSGPGIQKCACGIERNCTDPKYYCNCDADYKQWRKDAGFLSYKDHLPVSQVVVGDTDRQGSEAKLSVGPLRCQGDRNYWNAASFPNPSSYLHFSTFQGETSADISFYFKTLTPWGVFLENMGKEDFIKLELKSATEVSFSFDVGNGPVEIVVRSPTPLNDDQWHRVTAERNVKQASLQVDRLPQQIRKAPTEGHTRLELYSQLFVGGAGGQQGFLGCIRSLRMNGVTLDLEERAKVTSGFISGCSGHCTSYGTNCENGGKCLERYHGYSCDCSNTAYDGTFCNKDVGAFFEEGMWLRYNFQAPATNARDSSSRVDNAPDQQNSHPDLAQEEIRFSFSTTKAPCILLYISSFTTDFLAVLVKPTGSLQIRYNLGGTREPYNIDVDHRNMANGQPHSVNITRHEKTIFLKLDHYPSVSYHLPSSSDTLFNSPKSLFLGKVIETGKIDQEIHKYNTPGFTGCLSRVQFNQIAPLKAALRQTNASAHVHIQGELVESNCGASPLTLSPMSSATDPWHLDHLDSASADFPYNPGQGQAIRNGVNRNSAIIGGVIAVVIFTILCTLVFLIRYMFRHKGTYHTNEAKGAESAESADAAIMNNDPNFTETIDESKKEWLI",−1.3091,–
